Measured values: article PMC5876331, “RING tetramerization is required for nuclear body biogenesis and PML sumoylation” (Nature Communications, 2018)
Several values for one entry are separate records, joined by “and”; a condition that tells them apart may be missing. Identical values can stand only once.

Key:
[1] = target: the molecule itself; assay: AUC; sedimentation velocity, 200,000g, 25 °C, 20 mM Tris, 100 mM NaCl, pH 8.0, with/without 1 mM DTT; 1 mg ml^-1 (wild type also 5 mg ml^-1); SEDFIT c(s)
[2] = target: the molecule itself; assay: crystal structure; PML RING49-104 crystallised at 26 mg ml^-1, 500 mM ammonium sulfate, 1 M lithium sulfate, 100 mM sodium citrate, 4 °C; 1.6 Å, Zn SAD; 4 molecules per ASU
[3] = target: the molecule itself; assay: SEC-MALS; pooled gel filtration peaks of PML RING1-119 re-analysed on WTC-015S5 column, 40 μl injection, 0.5 ml min^-1, DAWN HELEOS-II MALS

B1: PML RING49-104 domain (amino acids 49-104), wild type (domain or fragment, UniProt P29590 49-104, looked up)
chain: EEEFQFLRCQQCQAEAKCPKLLPCLHTLCSGCLEASGMQCPICQAPWPLGADTPAL
notes: PML (promyelocytic leukemia protein), RING domain, amino acids 49-104; residues 51-97 visible in the electron density map; Two Zn ions per subunit; not shown: His6, N-terminal, cleaved
[1]
  stoichiometry N: 2
[2]
  stoichiometry N: 4

B2: PML RING1-119 (amino acids 1-119), wild type (domain or fragment, UniProt P29590 1-119, looked up)
chain: MEPAPARSPRPQQDPARPQEPTMPPPETPSEGRQPSPSPSPTERAPASEEEFQFLRCQQCQAEAKCPKLLPCLHTLCSGCLEASGMQCPICQAPWPLGADTPALDNVFFESLQRRLSVY
notes: PML, amino acids 1-119 (extended RING); theoretical molecular weight 13.1 kDa; also called extended RING; long version of PML RING; not shown: His6, N-terminal, cleaved
[3]
  stoichiometry N: 4 and 2
